Reference: PMC12422735

Tested on: Δ40p53β (TS, purified)
Assay: SPR
Conditions: Hill slope fit; SPR: 25 mM HEPES pH 7.5, 200 mM NaCl, 0.5 mM TCEP, 0.005% Tween-20, 20 °C; pull-down: 50 mM HEPES pH 7.5, 200 mM NaCl, 0.1% Tween-20, 0.5 mM TCEP, 4 °C

In the case of p21 RE 20 bp, the binding signal (fold lower affinity than DBD-OD) is reported as 280.
